Assay results as given in patent publication US20110256132A1 (published 2011).
* marks the point of attachment. Biotin = O=C1N[C@H]2[C@H](CS[C@H]2CCCCC(=O)*)N1

Experiments:
[1] = target: T1, human myostatin pro-peptide dimer (human, UniProt O14793 25-266); assay: ELISA, plate-coated antigen
T1 sequence: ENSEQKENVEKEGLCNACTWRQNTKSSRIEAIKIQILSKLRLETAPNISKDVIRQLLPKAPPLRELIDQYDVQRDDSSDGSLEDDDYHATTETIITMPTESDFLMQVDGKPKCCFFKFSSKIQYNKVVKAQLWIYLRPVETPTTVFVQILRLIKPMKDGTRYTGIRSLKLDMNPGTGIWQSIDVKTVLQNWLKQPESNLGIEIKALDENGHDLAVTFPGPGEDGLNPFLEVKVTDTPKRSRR
Protocol: The myostatin antigens were coated onto wells of an EIA/RIA plate (Costar) at 100 ng/well at 4° C. overnight in PBS, prior to blocking (PBS, 3% BSA) for 30 minutes at room temperature. Plates were washed (PBS, 1% BSA and 0.1% Tween20), prior to the addition of a dilution series of 10B3 in wash buffer and incubation for 2 hours at room temperature. […] A final wash step preceded addition of TMB substrate and colorimetric change which was stopped with Sulphuric acid and plates read at 450 nm.

[2] = target: T2, artificial myostatin linear peptide 37 (cysteine pairing not given here); assay: SRU BIND reader, peptides captured on streptavidin biosensor plate
T2 construct: also called Peptide No 37
T2 peptide: Biotin-SGSGCCTPTKMSPINMLY-NH2
Protocol: (§1) Work was carried out on an SRU BIND reader (SRU Biosystems). A streptavidin biosensor plate was washed, a baseline reading taken, and biotinylated peptides captured onto the streptavidin coated biosensor plate. The plate was washed again, and a new baseline reading taken, antibody was then added and binding monitored.

[3] = target: T3, artificial myostatin linear peptide 31 (cysteine pairing not given here); assay: as above
T3 construct: also called Peptide No 31
T3 peptide: Biotin-SGSGVHQANPRGSAGPCC-NH2
Protocol: as §1

[4] = target: T4, artificial myostatin linear peptide 35 (cysteine pairing not given here); assay: as above
T4 construct: also called Peptide No 35
T4 peptide: Biotin-SGSGSAGPCCTPTKMSPI-NH2
Protocol: as §1

[5] = target: T5, artificial myostatin linear peptide 19 (cysteine pairing not given here); assay: as above
T5 construct: also called Peptide No 19
T5 peptide: Biotin-SGSGRYKANYCSGECEFV-NH2
Protocol: as §1

[6] = target: T6, artificial myostatin linear peptide 21 (cysteine pairing not given here); assay: as above
T6 construct: also called Peptide No 21
T6 peptide: Biotin-SGSGNYCSGECEFVFLQK-NH2
Protocol: as §1

[7] = target: T7, artificial myostatin linear peptide 17 (SMILES …); assay: as above
T7 construct: also called Peptide No 17
T7 peptide: Biotin-SGSGIAPKRYKANYCSGE-NH2
Protocol: as §1

[8] = target: T8, artificial myostatin linear peptide 1 (not fully specified); assay: as above
T8 construct: also called Peptide No 1
T8 peptide: H-DFGLDCDEHSTESRGSG-NH2
Protocol: as §1

[9] = target: T9, artificial myostatin linear peptide 11 (SMILES …); assay: as above
T9 construct: also called Peptide No 11
T9 peptide: Biotin-SGSGTVDFEAFGWDWIIA-NH2
Protocol: as §1

[10] = target: T10, artificial myostatin linear peptide 27 (SMILES …); assay: as above
T10 construct: also called Peptide No 27
T10 peptide: Biotin-SGSGQKYPHTHLVHQANP-NH2
Protocol: as §1

[11] = target: T11, artificial myostatin linear peptide 41 (SMILES …); assay: as above
T11 construct: also called Peptide No 41
T11 peptide: Biotin-SGSGPINMLYFNGKEQII-NH2
Protocol: as §1

[12] = target: T12, artificial myostatin linear peptide 15 (SMILES …); assay: as above
T12 construct: also called Peptide No 15
T12 peptide: Biotin-SGSGWDWIIAPKRYKANY-NH2
Protocol: as §1

[13] = target: T13, artificial myostatin linear peptide 39 (SMILES …); assay: as above
T13 construct: also called Peptide No 39
T13 peptide: Biotin-SGSGTKMSPINMLYFNGK-NH2
Protocol: as §1

[14] = target: T14, artificial myostatin linear peptide 43 (SMILES …); assay: as above
T14 construct: also called Peptide No 43
T14 peptide: Biotin-SGSGLYFNGKEQIIYGKI-NH2
Protocol: as §1

[15] = target: T15, artificial myostatin linear peptide 23 (SMILES …); assay: as above
T15 construct: also called Peptide No 23
T15 peptide: Biotin-SGSGGECEFVFLQKYPHT-NH2
Protocol: as §1

[16] = target: T16, artificial myostatin linear peptide 33 (cysteine pairing not given here); assay: as above
T16 construct: also called Peptide No 33
T16 peptide: Biotin-SGSGNPRGSAGPCCTPTK-NH2
Protocol: as §1

[17] = target: T17, artificial myostatin linear peptide 45 (SMILES …); assay: as above
T17 construct: also called Peptide No 45
T17 peptide: Biotin-SGSGGKEQIIYGKIPAMV-NH2
Protocol: as §1

[18] = target: T18, artificial myostatin linear peptide 7 (cysteine pairing not given here); assay: as above
T18 construct: also called Peptide No 7
T18 peptide: Biotin-SGSGSRCCRYPLTVDFEA-NH2
Protocol: as §1

[19] = target: T19, artificial myostatin linear peptide 9 (SMILES …); assay: as above
T19 construct: also called Peptide No 9
T19 peptide: Biotin-SGSGRYPLTVDFEAFGWD-NH2
Protocol: as §1

[20] = target: T20, artificial myostatin linear peptide 5 (cysteine pairing not given here); assay: as above
T20 construct: also called Peptide No 5
T20 peptide: Biotin-SGSGHSTESRCCRYPLTV-NH2
Protocol: as §1

- binding result [1]: no binding
- binding result [2]: no binding
- binding result [3]: no binding
- binding result [4]: no binding
- binding result [5]: no binding
- binding result [6]: no binding
- binding result [7]: no binding
- binding result [8]: no binding
- binding result [9]: no binding
- binding result [10]: no binding
- binding result [11]: no binding
- binding result [12]: no binding
- binding result [13]: no binding
- binding result [14]: no binding
- binding result [15]: no binding
- binding result [16]: no binding
- binding result [17]: no binding
- binding result [18]: no binding
- binding result [19]: no binding
- binding result [20]: no binding
B1: mouse monoclonal antibody 10B3 (antibody, V domains shown)
VH: EVQLQQSGPELVKPGASVKISCKASGYSFTGYFMHWVKQSHGNILDWIGNIYPYNGVSNYNQRFKAKATLTVDKSSSTAYMELRSLTSEDSAVYYCARRYYYGTGPADWYFDVWGTGTTVTVSS
VL: DIKMTQSPSSMYASLRERVTITCKASQDINSYLSWFQQKPGKSPKTLIYRANRLVDGVPSRFSGSGSGQDYSLTISSLEYEDMGIYYCLQCDEFPLTFGAGTKLELK
notes: Mouse IgG2a/kappa from hybridoma; also called 10B3 mouse parental; 10B3 parental
